Here are results for 2 molecules from PMC6041754 (Journal of Molecular Cell Biology, 2017).

One assay addresses Ran^Δ181–216 (human, UniProt P62826 1-180). As to the kind of experiment: NMR.
The target in assay [1] is Ran (full-length, His6-tagged, from pET22b) (human, UniProt P62826 1-216). In words: SPR. For orientation: In SPR one partner is held on a chip, and binding of the other changes the refractive index at the surface.

Where a chain is given by its changes, count along the chain named. In names and notes the source's numbering stands.

B1: Mog1 without a tag (co-expressed with Ran from pRSFDuet-1) (natural protein)
chain: MEPTRDCPLFGGAFSAILPMGAIDVSDLRPVPDNQEVFCHPVTDQSLIVELLELQAHVRGEAAARYHFEDVGGVQGARAVHVESVQPLSLENLALRGRCQEAWVLSGKQQIAKENQQVAKDVTLHQALLRLPQYQTDLLLTFNQPPPDNRSSLGPENLSPAPWSLGDFEQLVTSLTLHDPNIFGPQ
modifications: isotope labels (2H, 15N, ILV methyl 13CH3) as the sample required
Turning to B1, the binding result in the assay with Ran^Δ181–216 is “binds”.

B2: Mog1^E50K,E53K (natural protein)
chain: B1 chain with E50K, E53K
In the case of B2, the “fold reduction of binding affinity against wild-type Mog1” value in assay [1] was around 100 fold.
